Data from IntAct's records for PubMed 23386062.

B1: Ras-related protein Rab-4B (Rattus norvegicus (Rat)), P51146 (parent)
chain: MAETYDFLFKFLVIGSAGTGKSCLLHQFIENKFKQDSNHTIGVEFGSRVVNVGGKTVKLQIWDTAGQERFRSVTRSYYRGAAGALLVYDITSRETYNSLAAWLTDARTLASPNIVVILCGNKKDLDPEREVTFLEASRFAQENELMFLETSALTGENVEEAFLKCARTILNKIDSGELDPERMGSGIQYGDISLRQLRQPRSAQAVAPQPCGC
B2: Ras-related protein Rab-9A (Homo sapiens), P51151 (parent)
chain: MAGKSSLFKVILLGDGGVGKSSLMNRYVTNKFDTQLFHTIGVEFLNKDLEVDGHFVTMQIWDTAGQERFRSLRTPFYRGSDCCLLTFSVDDSQSFQNLSNWKKEFIYYADVKEPESFPFVILGNKIDISERQVSTEEAQAWCRDNGDYPYFETSAKDATNVAAAFEEAVRRVLATEDRSDHLIQTDTVNLHRKPKPSSSCC

Variants of: B1
Conditions: with nisch_human NISCH

effect of a mutation on the interaction	Variant
disrupting interaction	MAETYDFLFKFLVIGSAGTGKNCLLHQFIENKFKQDSNHTIGVEFGSRVVNVGGKTVKLQIWDTAGQERFRSVTRSYYRGAAGALLVYDITSRETYNSLAAWLTDARTLASPNIVVILCGNKKDLDPEREVTFLEASRFAQENELMFLETSALTGENVEEAFLKCARTILNKIDSGELDPERMGSGIQYGDISLRQLRQPRSAQAVAPQPCGC [S22N]

Variants of: B2
Conditions: with nisch_human NISCH

effect of a mutation on the interaction	Variant
disrupting interaction	MAGKSSLFKVILLGDGGVGKDSLMNRYVTNKFDTQLFHTIGVEFLNKDLEVDGHFVTMQIWDTAGQERFRSLRTPFYRGSDCCLLTFSVDDSQSFQNLSNWKKEFIYYADVKEPESFPFVILGNKIDISERQVSTEEAQAWCRDNGDYPYFETSAKDATNVAAAFEEAVRRVLATEDRSDHLIQTDTVNLHRKPKPSSSCC [S21D]
